The results in this text go back to patent EP4772624A1.

This assay addresses human IgG1 antibody against KLH (keyhole limpet hemocyanin). Description: cell-based or functional assay.

Consider “wild-type IdeZ-mouse Fc fusion protein (from UniProt P01868 103-324)”, for which the cleavage of human IgG1 antibody (SDS-PAGE, reducing; 37 C, 2 h): highest concentration ratio of antibody to fusion protein at which cleavage was confirmed (times (antibody to fusion protein)) was 33.
